Assay results published in US20120322685A1, “DEVICE FOR COLLECTING AND ANALYZING MIGRATORY TUMOR CELLS” (priority 2010, published 2012).

B1: CSF-1: growth factor chemotactic for macrophages (protein, UniProt P09603 33-554, looked up)
Macrophage colony-stimulating …: EEVSEYCSHMIGSGHLQSLQRLIDSQMETSCQITFEFVDQEQLKDPVCYLKKAFLLVQDIMEDTMRFRDNTPNAIAIVQLQELSLRLKSCFTKDYEEHDKACVRTFYETPLQLLEKVKNVFNETKNLLDKDWNIFSKNCNNSFAECSSQDVVTKPDCNCLYPKAIPSSDPASVSPHQPLAPSMAPVAGLTWEDSEGTEGSSLLPGEQPLHTVDPGSAKQRPPRSTCQSFEPPETPVVKDSTIGGSPQPRPSVGAFNPGMEDILDSAMGTNWVPEEASGEASEIPVPQGTELSPSRPGGGSMQTEPARPSNFLSASSPLPASAKGQQPADVTGTALPRVGPVRPTGQDWNHTPQKTDHPSALLRDPPEPGSPRISSLRPQGLSNPSTLSAQPQLSRSHSSGSVLPLGELEGRRSTRDRRSPAEPEGGPASEGAARPLPRFNSVPLTDTGHERQSEGSFSPQLQESVFHLLVPSVILVLLAVGGLLFYRWRRRSHQEPQRADSPLEQPEGSPLTQDDRQVELPV
B2: EGF: epidermal growth factor, chemotactic factor used in collection needles (protein, UniProt P01133 23-1207, looked up)
Pro-epidermal growth factor: PQHWSCPEGTLAGNGNSTCVGPAPFLIFSHGNSIFRIDTEGTNYEQLVVDAGVSVIMDFHYNEKRIYWVDLERQLLQRVFLNGSRQERVCNIEKNVSGMAINWINEEVIWSNQQEGIITVTDMKGNNSHILLSALKYPANVAVDPVERFIFWSSEVAGSLYRADLDGVGVKALLETSEKITAVSLDVLDKRLFWIQYNREGSNSLICSCDYDGGSVHISKHPTQHNLFAMSLFGDRIFYSTWKMKTIWIANKHTGKDMVRINLHSSFVPLGELKVVHPLAQPKAEDDTWEPEQKLCKLRKGNCSSTVCGQDLQSHLCMCAEGYALSRDRKYCEDVNECAFWNHGCTLGCKNTPGSYYCTCPVGFVLLPDGKRCHQLVSCPRNVSECSHDCVLTSEGPLCFCPEGSVLERDGKTCSGCSSPDNGGCSQLCVPLSPVSWECDCFPGYDLQLDEKSCAASGPQPFLLFANSQDIRHMHFDGTDYGTLLSQQMGMVYALDHDPVENKIYFAHTALKWIERANMDGSQRERLIEEGVDVPEGLAVDWIGRRFYWTDRGKSLIGRSDLNGKRSKIITKENISQPRGIAVHPMAKRLFWTDTGINPRIESSSLQGLGRLVIASSDLIWPSGITIDFLTDKLYWCDAKQSVIEMANLDGSKRRRLTQNDVGHPFAVAVFEDYVWFSDWAMPSVMRVNKRTGKDRVRLQGSMLKPSSLVVVHPLAKPGADPCLYQNGGCEHICKKRLGTAWCSCREGFMKASDGKTCLALDGHQLLAGGEVDLKNQVTPLDILSKTRVSEDNITESQHMLVAEIMVSDQDDCAPVGCSMYARCISEGEDATCQCLKGFAGDGKLCSDIDECEMGVPVCPPASSKCINTEGGYVCRCSEGYQGDGIHCLDIDECQLGEHSCGENASCTNTEGGYTCMCAGRLSEPGLICPDSTPPPHLREDDHHYSVRNSDSECPLSHDGYCLHDGVCMYIEALDKYACNCVVGYIGERCQYRDLKWWELRHAGHGQQQKVIVVAVCVVVLVMLLLLSLWGAHYYRTQKLLSKNPKNPYEESSRDVRSRRPADTEDGMSSCPQPWFVVIKEHQDLKNGGQPVAGEDGQAADGSMQPTSWRQEPQLCGMGTEQGCWIPVSSDKGSCPQVMERSFHMPSYGTQTLEGGVEKPHSLLSANPLWQQRALDPPHQMELTQ
modifications: Pro-epidermal growth factor
notes: epidermal growth factor, chemotactic factor used in collection needles

Columns and labels:
[1] = test system: tumor cells and macrophages of primary mammary tumors; experiment: in vivo invasion assay, needles with matrigel and growth factors in primary mammary tumor; set-up: species or system rats and mice; conditions: factor in matrigel-filled needle placed in primary tumor
Excerpt: (§1) Therefore, an in vivo invasion assay was created in which three needles (microneedles ˜100 um in diameter) containing matrigel and various growth factors are placed independently with microscopic precision, using a specially designed micromanipulator guided device, into the primary tumor for chemotaxis-based cell collection in vivo [3]. One needle contains control conditions (usually no ligand or an inhibitor), and the other two are identical. […] Fetal serum was also sufficient but this required signaling by the EGF receptor again implicating the EGF receptor. Furthermore, CSF-1 was also sufficient for cell collection. […] Migration and collection was directly correlated with macrophage density in the mammary gland, stage of progression to malignancy (only background levels of cells, <200 cells, were collected from normal mammary glands and adenoma stage tumors compared with carcinoma stage tumors, ˜1000 cells) and the presence of CSF1 in the tumor was required for cell collection as shown using mouse models with either decreased (op/op) or increased (tet on CSF-1) CSF-1 expression that regulates macrophage recruitment to the mammary gland and metastasis. […] Furthermore, the motility of tumor cells and intravasation occurs preferentially in association with macrophages. […]

[2] = test system: Human lung tumors heterotransplanted into nude mice; experiment: in vivo invasion assay, chemotaxis-based cell collection into needles, human lung tumor heterotransplants; conditions: needles containing 25 nM EGF; first mouse to mouse transplant
Excerpt: as §1

[3] = test system: MDA-MB-231 derived mammary tumors; experiment: in vivo invasion assay, MDA-MB-231 derived mammary tumors; set-up: species or system human tumor xenograft in SCID mice tumor xenograft in SCID mice; conditions: MDA-MB-231 injected into mammary fat pad of mice; FIG. 1C
Excerpt: Therefore, an in vivo invasion assay was created in which three needles (microneedles ˜100 um in diameter) containing matrigel and various growth factors are placed independently with microscopic precision, using a specially designed micromanipulator guided device, into the primary tumor for chemotaxis-based cell collection in vivo [3]. One needle contains control conditions (usually no ligand or an inhibitor), and the other two are identical. […] Fetal serum was also sufficient but this required signaling by the EGF receptor again implicating the EGF receptor. Furthermore, CSF-1 was also sufficient for cell collection. […]
Mammary tumors derived by injecting the human cell line MDA-MB-231 into a mammary fat pad of mice were used in the in vivo invasion assay. […] The involvement of EGF and CSF1 in carcinoma cell invasion has been analyzed from primary breast tumors derived from the injection of MDA-MB-231 cells into the mammary fat pads of SCID mice. […]

Row | Molecule | chemotaxis to indwelling needles / cell collection [1] | fold more cells collected in needles as compared to needles with buffer alone [2] [fold] | fold more cells collected in response to EGF [3] [fold]
1 | B1 | sufficient | – | –
2 | B2 | stimulated collection | 2.5 | 2.5
